How the values were obtained:
[1] = Western blot, stable 2TS22C cells; settings: glycan lost; control: WT FLAG-Sox2
[2] = 3D z-stack immunofluorescence, 2TS22C cells; settings: glycan lost; control: WT FLAG-Sox2
Western blot = settings: glycan lost; control: E14 cells
[3] = immunofluorescence confocal microscopy; settings: glycan lost; control: E14 cells

Sequence of Sox2: T258A (chain, as listed by the source T258A): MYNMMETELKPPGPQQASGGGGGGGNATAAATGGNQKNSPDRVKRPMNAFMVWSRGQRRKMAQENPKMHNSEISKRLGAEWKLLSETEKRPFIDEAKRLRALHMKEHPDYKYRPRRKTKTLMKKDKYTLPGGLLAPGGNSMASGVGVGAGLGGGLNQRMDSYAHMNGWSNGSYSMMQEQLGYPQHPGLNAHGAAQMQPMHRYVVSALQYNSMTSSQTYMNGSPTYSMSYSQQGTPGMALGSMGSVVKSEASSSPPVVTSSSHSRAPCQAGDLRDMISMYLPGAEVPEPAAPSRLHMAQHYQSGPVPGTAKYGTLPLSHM
Sequence of Sox2: E14-Sox2TA/WT (chain, as listed by the source): as the sequence (chain, as listed by the source T258A) above
Sequence of Sox2: S248A (chain, as listed by the source S248A): as the sequence (chain, as listed by the source T258A) above
Sequence of Sox2: S248A/T258A (chain, as listed by the source S248A T258A): as the sequence (chain, as listed by the source T258A) above

Substance	expression_or_secretion [1]	localisation_or_trafficking [2]	expression_or_secretion (Western blot)	localisation_or_trafficking [3]
Sox2: S248A	no change			
Sox2: T258A	no change	no change		
Sox2: E14-Sox2TA/WT			no change	no change
Sox2: S248A/T258A	no change			
